From patent EP4703388A1 (Jiangsu Hengrui Pharmaceuticals Co., Ltd., dated 2024)

T1: rat TF ECD-His (rat, UniProt P42533 29-252)
T1 construct: also called rat TF-His protein; rat TF antigen protein
T1 sequence: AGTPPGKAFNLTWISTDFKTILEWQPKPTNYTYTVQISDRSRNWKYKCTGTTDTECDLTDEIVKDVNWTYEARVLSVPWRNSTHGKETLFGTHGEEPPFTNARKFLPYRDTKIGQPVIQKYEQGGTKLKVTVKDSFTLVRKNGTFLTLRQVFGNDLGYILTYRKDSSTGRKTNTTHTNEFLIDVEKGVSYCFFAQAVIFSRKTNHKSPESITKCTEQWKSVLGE

T2: mouse TF ECD-His (mouse, UniProt P20352 29-251)
T2 construct: also called Mouse TF-His protein; mouse TF antigen protein
T2 sequence: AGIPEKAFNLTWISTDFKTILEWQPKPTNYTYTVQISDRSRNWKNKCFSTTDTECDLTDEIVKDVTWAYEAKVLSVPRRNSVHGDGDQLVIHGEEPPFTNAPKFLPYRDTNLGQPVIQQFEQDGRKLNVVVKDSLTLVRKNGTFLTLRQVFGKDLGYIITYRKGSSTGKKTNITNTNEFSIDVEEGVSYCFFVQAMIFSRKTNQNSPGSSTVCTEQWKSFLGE

T3: cyno TF ECD-His (cTF-his) (monkey (cyno))
T3 construct: also called bio-cTF-his; monkey TF-His protein
T3 chain: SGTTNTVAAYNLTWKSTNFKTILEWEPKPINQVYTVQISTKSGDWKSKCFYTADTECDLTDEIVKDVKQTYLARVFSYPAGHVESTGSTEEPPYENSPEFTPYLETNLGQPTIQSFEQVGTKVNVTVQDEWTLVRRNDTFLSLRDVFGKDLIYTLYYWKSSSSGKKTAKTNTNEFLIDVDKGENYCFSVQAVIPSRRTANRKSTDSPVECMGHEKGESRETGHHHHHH

T4: HuRatTF, human-rat hybrid TF antigen (human-rat hybrid)
T4 construct: also called HuRatTF protein; human-rat hybrid TF protein
T4 chain: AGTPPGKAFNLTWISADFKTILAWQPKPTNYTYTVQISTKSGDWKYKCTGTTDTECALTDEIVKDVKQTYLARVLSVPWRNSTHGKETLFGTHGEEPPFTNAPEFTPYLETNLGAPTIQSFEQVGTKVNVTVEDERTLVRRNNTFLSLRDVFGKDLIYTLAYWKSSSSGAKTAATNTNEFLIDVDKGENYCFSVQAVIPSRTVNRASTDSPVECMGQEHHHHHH

B1: hu10H10-77 (antibody, V domains shown)
VH: EVQLVQSGSELKKPGASVKVSCKASGYTFITYWIEWVKQRPGQGLEWMGDILPYSGSTNYNENFKGRATFSADTSVSTAYLQISSLKAEDTAVYYCARSGYYGNSGFAYWGQGTLVTVSS
VL: DIQMTQSPSSLSASVGDRVTITCQSSQSLLSSGNQKNYLTWYQQKPGKAPKLLIYWASTRESGVPSRFSGSGSGTDFTLTISSLQPEDFATYYCQNDYTYPLTFGQGTKLEIK
notes: H11+L9; Full-length IgG
B2: hu310-2 (antibody, human IgG1, kappa, V domains shown)
VH: EVQLVQSGAEVKKPGASVKVSCKASGYSFTGYYMNWVRQAPGQGLEWMGEINPSTGGSTYNQKFKARVTMTVDQSTSTVYMELSSLRSEDTAVYYCARRELGGPFGYWGQGTTVTVSS
VL: SIVMTQSPDSLAVSLGERATINCKASQSVSNGIAWYQQKPGQSPKLLIYFASNRYTGVPDRFSGSGYGTDFTLTISSLQAEDVAVYYCQQDYSSPWTFGGGTKVEIKR
B3: hu67Y116 (antibody, human IgG1, kappa, V domains shown)
VH: EVQLQESGPGLVKPSQTLSLTCTVSGFSLTNYGVNWIRQSPGKGLEWIGVIWSRGNTDYNAAFKSRVTISKDTSKNQVSLKLSSVTAADTAVYYCARKDAIVATDALDYWGQGTTVTVSS
VL: DIQMTQSPSSLSASVGDRVTITCKASQDVQTAVAWYQQKPGKAPKLLIYSTHYRYTGVPSRFSGSGSGTDFTFTISSLQPEDIATYYCLQSYTLPFSFGGGTKVEIKR

Assays:
[1] = target: T5, human tissue factor (TF) on MDA-MB-231, NCI-H358 and HCT116 cells (human, UniProt P13726 33-295); assay: flow cytometry on HCT116 cells
T5 construct: whole, on cells; also called TF antigen; CD142

rat TF ECD-His = target: T1, rat TF ECD-His; assay: ELISA, TF-His coated at 4 µg/mL, antibody titrated
mouse TF ECD-His = target: T2, mouse TF ECD-His; assay: ELISA, TF-His coated at 4 µg/mL, antibody titrated
[2] = target: T5, human tissue factor (TF) on MDA-MB-231, …; assay: flow cytometry on MDA-MB-231 cells
[3] = target: T6, human TF ECD-His (hTF-his) (human, UniProt P13726 33-251); assay: ELISA, antibody captured by anti-human IgG, biotinylated TF-his titrated
T6 construct: also called bio-hTF-his; human TF-His protein

[4] = target: T3, cyno TF ECD-His (cTF-his); assay: as above
[5] = target: T6, human TF ECD-His (hTF-his); assay: SPR Biacore T200, antibody on Protein A chip, TF-His as analyte, 1:1 model
[6] = target: T3, cyno TF ECD-His (cTF-his); assay: as above
[7] = target: T5, human tissue factor (TF) on MDA-MB-231, …; assay: cell-based or functional assay
[8] = target: T4, HuRatTF, human-rat hybrid TF antigen; assay: ELISA, HuRatTF coated, antibody titrated
[9] = target: T5, human tissue factor (TF) on MDA-MB-231, …; assay: flow cytometry on H358 cells
[10] = target: T5, human tissue factor (TF) on MDA-MB-231, …; assay: cell-based or functional assay; remark: listed apart in the source

| Binder | EC50 [1] | binding result (rat TF ECD-His) | binding result (mouse TF ECD-His) | EC50 [2] | EC50 [3] | Emax [3] | EC50 [4] | Emax [4] | Kd [5] | koff [5] | kon [5] | Kd [6] | koff [6] | kon [6] | EC50 (nM), IL8 assay (IL-8 of MDA-MB-231 cells after antibody and FVIIa) [7] | EC50 [8] | Maximum (OD450 nm) [8] | EC50 [9] | Inhibition rate (%), Factor-VII-Human Chromogenic-Activity blood coagulation pathway assay (FVIIa, MDA-MB-231 cells, FX; antibody 20 µg/mL) [10] |
| --- | --- | --- | --- | --- | --- | --- | --- | --- | --- | --- | --- | --- | --- | --- | --- | --- | --- | --- | --- |
| B1 | 0.47 nM | no binding | no binding | 1.64 nM | 0.0035 µg/mL | 1 | 0.0027 µg/mL | 1.13 | 0.749 nM | 0.00011 s⁻¹ | 146000 M⁻¹ s⁻¹ | 0.677 nM | 0.000114 s⁻¹ | 169000 M⁻¹ s⁻¹ | 0.412 nM | 2 nM | 1.39 OD450 nm | 0.68 nM | -1.8% |
| B2 | 0.34 nM | no binding | no binding | 1.32 nM | 0.0529 µg/mL | 0.92 | 0.041 µg/mL | 0.92 | 18.5 nM | 0.00699 s⁻¹ | 378000 M⁻¹ s⁻¹ | 19.2 nM | 0.00637 s⁻¹ | 332000 M⁻¹ s⁻¹ | 0.407 nM | 2.13 nM | 0.428 OD450 nm | 0.67 nM | -2.8% |
| B3 | 1.66 nM | no binding | no binding | 4.91 nM | 0.103 µg/mL | 0.89 | 0.0691 µg/mL | 1.17 | 39.4 nM | 0.00263 s⁻¹ | 66700 M⁻¹ s⁻¹ | 27.1 nM | 0.000947 s⁻¹ | 35000 M⁻¹ s⁻¹ | 1.57 nM | 53.4 nM | 0.292 OD450 nm | 5.42 nM | 4% |
